Measurements reported in the domain aggregation screens of Martell et al. (2025).

Experiment: soluble fraction after stress (log2 fold change); higher = more stays soluble; pooled small domains, quantitative proteomics
Details: stress: 75 degC
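Further: 20 min heating vs room temperature control held 20 min.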

HMSQVHYAVLFKNASAAEATEIVTYARETLGVQDIKINANGDILVPEDKVEEMRVSMSIAGFPK
soluble fraction (log2): 0.23

HMPGMLVVYVTGAVRQPGRMVTLAAGSRVSDAIDAAGGLADDADAQALNLSARLNDGDLVHVPSALD
soluble fraction (log2): -0.264

HMDLPSSETLKVKLNLAKAYVTIEDFGAARRALDEVLSVSSLVDPDLTIQAKSLLAEIDQRS
soluble fraction (log2): -0.352

HMPELPEVETSRRGIEPHLVGATILHAVVRNGRLRWPVSEEIYRLSDQPVLSVQRRAKYLLLELQA
soluble fraction (log2): 0.0647

HMTLGQHIQALRKEAGYSQEALGEALGVTRQSISKWESDQAIPEVDKLVTLSRLFQVPVGVLLQVEQP
soluble fraction (log2): -0.348

HMDTHRLNYSDFVAEVQAQRVSKVVIDGYTIVGQRTNGETFETVRPALQDPKLVDDLLQNNVIIEGKQPE
soluble fraction (log2): -0.0116

HMKPEQIELTFSGTTAMRLDKFLAENQPGLSRAKLQAIISSGSVEVNGKVITKQAFKLDPGDLVKALIPE
soluble fraction (log2): -1.23

HMPQEMIEILATPNGWLRVRQGPGTNYPEITKVNSGEEFPLLEEKDSWFKIRIEEGQEGWISSQYAQKEE
soluble fraction (log2): 0.00978

HMQKYSTIIGVIELRQSGIGYRTTKKRYNIGNSTVTLIMNRFHELGLSLEELKAMPPKKVEEAFYPPE
soluble fraction (log2): -3.22

HMYNSYALTARELELVNYVLKGNSRREMAEDSGLKENTVASYMKRLYRKIKVHSRKELKELFM
soluble fraction (log2): -0.151

HMLDGFEVGMTVMKKSGTEIGFTGWPSFADKDELPIIERIDTSDSTLLLKFKDMSWWIKASLVEPS
soluble fraction (log2): -3.55

HMSASIAEGTVIMLENTTNIRSGMSEDSSKVGTAYAGEKVTVVMSYAEGWTKVKWNGETGYIKTALLQL
soluble fraction (log2): -0.607

HMGEVYPSDIVEKMKQANLHILEGTLYPLLTRLKNAGLLNYRWVESVTGPPRKYFVMTEEGKAAF
soluble fraction (log2): 0.13

HMSNLGLQIVRTLTDAGKGVVFITHKLKEALTIADRINVLRRGKVVGDADPKTASESQIAEMMVGRPVQL
soluble fraction (log2): -0.0755

HMTMQQGTISRLNHSRGFGFLTTPDGEDLFFHRTNVHETPFARLQVGDRVTYDVQVTPRGTRADKVQLNM
soluble fraction (log2): -0.261

HMLSDEDMMELAIIENLQRENLNPIEEARAYESLIDKGFTHTEIADKMGKSRPYISNSIRLLSL
soluble fraction (log2): 0.355

HMSALAEELIKKNQAMILTIKPRDTIWGIANRFQSPPSEKFINQIIELNQVDPYRLRIGQDLLIPLN
soluble fraction (log2): -0.984

HMKTALDEAKDFLNGALSKGHRPASDVVDEAKEASISEKTLKRAKLAIGIITRKEGFGSEGKWVWELPAR
soluble fraction (log2): -0.375

HMNEFGIPDKKLQDIETRVNSMSLEQLNAARSMLIDEQEALNSSTGSASSGRLKEIAAELSTIQKALIAIA
soluble fraction (log2): -0.00417

HMATTMSADWRPSEDAVGILVNAEINARFIEDAIPEFVLYWRERGAVHGAWNSKFIEHIRRQWAKFSAS
soluble fraction (log2): -2.84

HMSEEELETSGLVKRSAKGNLYDIFRHRVMVPIIDVRGAIIAFGGRVLDDSKPKYINSPETMVY
soluble fraction (log2): -0.0708

HMKQLRVLGIVKAGSILKNSDGSIEFVIEDSGKSLLVKYKGVIPDIFKDGVEAVVEGDLRGSVFNADKLF
soluble fraction (log2): -1.14

HMGRKPATTIPLQVRNAVLDLYRTKYYGANFQHYTELLHEHEGIRISTSSVAKILEAEYILSPK
soluble fraction (log2): -1.58

HMGAAIEYGDRGNTVLQAQRLLIARGYMAGSADGIYGRQMEQAVKRFQKEQGLPESGVVDRRTLQVLIRSR
soluble fraction (log2): -1.63

HMAGLKERLFYFIEYKGLTVQSFEKTVGLSNGAVSKMGDNTRRSTIDKISNFFGDLNKNWLLTGEGEMLI
soluble fraction (log2): -2.98

HMTIHVMEIKSLLPIKILDESQHLVQSFSSKNPTSYNYRLIFSDKSKLENIKKTINENKDVESIEIRYA
soluble fraction (log2): -0.885

HMSAETRSWTDAQGNQTQAVLRGFDGGDVLLQNAAGKTLRVPVKNLSEDDQRYVVLNISTLID
soluble fraction (log2): -0.0549

HMSEMLPFDEARRQFERDYLVQLLKLTSGNVSQAARLARRNRTDFYALLGRHQLEPASFKPE
soluble fraction (log2): -0.971

HMISVENLSNREFEIFQLIGNGFSTKEMAKKLNLSIYTVESHKKNIKEKLKLKNSSDLSKYAIQWVIMQN
soluble fraction (log2): -2.94

HMEHDTVLSKVFRRLREAHVPLSLDDIYQGLRKTVNNNSEIREKIVTLQERGLVAEILGPKGGKKYVAKPT
soluble fraction (log2): -0.693

HMSVEVADITRAYYEGVGFEWWIRSVRLDPNELIVDNDDEGKLYRVPFEINGEEVTFGDPVEVKIRYE
soluble fraction (log2): -0.995

HMAFRIGGFVQEGSVVRQQDGGTVRFEVTDTAHSVPVTYKGSLPDLFKEGKGVVAQGKLMNGTFVADQVLA
soluble fraction (log2): 0.165

HMQVSITGYLGGEKIGLFDDAKFKALAAKQGIAIDYRKAGSPAMMDADRKGMDYLFPSSRAAVEYGNAKGV
soluble fraction (log2): -0.00209

HMFDMLGDQIKKYRKEKKMSQEELAIPLNVVRQTVSKWENNLSVPDAELLIRLAEVLEISVAELLGT
soluble fraction (log2): -0.378

HMGTPLYLLLAAEVRDRIATEQLAPHTAVPSERELAELHGVSRMTARQALALLESEGLVYRNPPRGTFVAE
soluble fraction (log2): -1.15

HMESSSQLGFELARLVESGNDEEARALVQAKELSEADERKWLYHLGNLLHAAGRPLQASAIWREVGT
soluble fraction (log2): 0.0141

HMSELIDSLTEAVRSAPDAVPLRLHLAELLLADGQRDRAFAQLGQVLAKDPQNARALEMLGVGS
soluble fraction (log2): -0.129

HMNRMKLLREQHNLSQTDLAKILNISRQSYNFYENEKRDPDTTMLIRIADFFNVSLDYLLGRTNN
soluble fraction (log2): -2.84

HMVDDNFGLGEVTDQNYLTVLGRALDLIGWTDEQADSYSLKTFGVPHWDELGRSQAEKLVAHLIGLLKEQM
soluble fraction (log2): 0.0834

HMNEGETLYRLRAGDGRARLDKFLAAALPDISRTRFKGLIESGHVRVGGETITEPAYRVKSEAEVELTVPE
soluble fraction (log2): 0.0126

HMRNDIFDQLTEREMQILQEVAKGYRNKQIADHLFISESTVKVHMKSLLKKLQVPSRTAATVLYLERYG
soluble fraction (log2): -1.55

HMFERFIFTDEVYIRLKKSGLPQTTLRPLLEIHGKSFDHNEINIILSGLIPNQDFERYAQIIKSHSRF
soluble fraction (log2): -4.24

HMRLANGIGTVYKLSGNRRNPYIVRKTTGWEIDEESGKAKQKYITIGYAPTRAKGLEMLMDYNKNP
soluble fraction (log2): -0.895

HMQESTPGEGYKWREDVLLRVMSQNGIDESLRDEFVRHAVNYDIDDNMYLKKAEIESAAEAWVLENS
soluble fraction (log2): 0.172

HMDLFLVYQFIRRLATPFTEWKAHELGIIDDKGVQLKKRRDFTTREEKDAYGIFDIMITKLKRLIEKV
soluble fraction (log2): 0.0817

HMEYSNLGEALRRLSEIDLQIILLKYSHGFSIKEISKILDIKEVNLYKRNKRALNKLKKILAEMEVLSN
soluble fraction (log2): -0.34

HMEKERYDTGIGELNRVLGGGLVKGSLILISGDPGIGKSTLLLQTANNISKKYGKVLYVSGEESEEQIKIR
soluble fraction (log2): -0.879

HMEITRDTVIQWLEAERRSQTWLSKQLGVSVQAVSNWLREKNPQTISASAQITIRALMEEDAAK
soluble fraction (log2): -1.11

HMDLMKKTLTKEMLLIDFMKQQFPDSSTNKLRKMLSSGRVKINNLITHKAKSQLKLGDIFELANKPHD
soluble fraction (log2): -1.31

HMDINLGIGPLVKKYRTIKGYSIRELARNINVTASMLSQIERDIVNPSINTLKAISVELGVPMYKFFM
soluble fraction (log2): -2.38

HMHKAVVGPPNARKLAVTYGFKRWPALVFFRDGKYLGAVDGLRLWADLVREADEIMHSEPHYP
soluble fraction (log2): 0.0613

HMASPRVWKDASSGRTLTGEFVELTKDAVKVRRANGDVVSLPLSRLTEEDITFAKGASETGGA
soluble fraction (log2): 0.198

HMDGFVFVMPIKETRMFSVNDERPLVGIVKYSNGEFEKEQLIGFRPNSEYEFIIEGQRLYRVPVNSITIK
soluble fraction (log2): -1.08

HMIKKAILPVAGLGTRFLPASKSIPKEMVTVVDRPAIEYVVREAVEAGIEQIILVTHSSKASIENYFDR
soluble fraction (log2): -0.192

HMVMATPHNTAKAGDIAKTVIMPGDPLRAKYIADNYLDNAVQFNVVRNIYGYTGVYRGTDISVMASGM
soluble fraction (log2): 0.212

HMSDPVDDLLLRISQQAGVARGQLVAELNMLVQDRFGGNLRHEAAAVLMAKRYGIEFRDLLPALREHLVKN
soluble fraction (log2): -0.804

HMQASIPQSQKDALAKELQALPPHGRNRVLSTFRQQFNISSEKISEFITTPEHLSFIRSKIAEVESDS
soluble fraction (log2): 0.267

HMRNANENTLKDLPVAVPNIHVSNIEEKKDFHLIQLEYSQEFDPREDLFNFAVNSSWVILKMTPT
soluble fraction (log2): 0.215

HMEAGTVTVTHAAVYIRSGPGVSYPIAGKAAKNDTYTVLQKDGDWFQIRLPQGNTGWIAGWLVETGT
soluble fraction (log2): -1.69

HMETNFTGTRIATARKAKNMSQAQLAQQLFISPQAVGKWERGESIPDIVTVVKLADVLGVDLNYFSE
soluble fraction (log2): -0.572

HMATPKYMELVRWINEQIESKNLVPGQKMYSENTLKEMFGVSRQTVRHAIGVLENEGVIRRIQGSGTYIN
soluble fraction (log2): -1.51

HMSDIDHIAGRRIRQARLNAGMTLETLASQAGISKALLSKIENSKVSSPLATFSKISKVLGVPLSDLLKE
soluble fraction (log2): -0.748

HMASVLTAKLSEREVDVLNLLARGFTNADIAAQLHLSEGTVRNHVSTIFAKLDVNDRTQAAVIAIRHGL
soluble fraction (log2): -2.52

HMKGVENLSDIDIQKALNNARANLSKNKAKLEQAGDDEKKKASALAMIQKWETTKKAIEEEIEARKKKSLN
soluble fraction (log2): -0.491

HMKHTQTDEGELLSTLRTLFPNSSSSSLRKMLTQGRILVNQEVVHRAKHALQAGDEIEVLARQ
soluble fraction (log2): -0.13

HMGFPAPFDGKAVAELRRRLGLTRRGLAEELSVSPSTVDKWEQGDVALRSPALTILKILWHQGLKALPP
soluble fraction (log2): -1.78

HMDGVTEYTVKSGDSFSAIINKHYNVNYDEKLMQAVAAYNNIEDMNKLQLGQIIKLPPKEQLNL
soluble fraction (log2): -0.0462

HMVIVMRKDADAASIEKVVSEVKSRGFMPHVSEGESRTLIGAIGPAPTEELREHFAGLAGVETVVRITK
soluble fraction (log2): -0.533

HMKGPLKDLGPDPVTGKSILVKDGKFGTYVTDGETNATLRRGDIVELLTLERGMELLAEKRARATQ
soluble fraction (log2): 0.0771

HMQTLQNNLKQIRSRVGLTQGELASRAGISRQAYSTLESGNANPSTEVSLRLAEALNERIESLFFLANQ
soluble fraction (log2): -0.495

HMDLSYPFTTVTTDNVNMRRSASSSSVVLERIDKGDSITVLGTSGNYYKVSYNDRTGYVLKQYVDVSAATT
soluble fraction (log2): -0.254

HMRENAARNRNVNLDIGETLRVDAWSPERRARVQYRGAAWDVELAPNAPATVGEFRIVEVRGNVLVVTP
soluble fraction (log2): -0.604

HMSQLSDEQELRDIARGIIEGNPNEAEKYRAGRTGLLGFFVGKLMAETEGKANPRLASRILKELLE
soluble fraction (log2): -0.144

HMDQSIDADIINLNFSKNIIKIEENVYYKNNNAKVNADKIEINIETKKLKISMNEQEDEVEIFAK
soluble fraction (log2): 0.552

HMKYEGEDEYYASLVTEKIAAIGTVTEESEDAIKEARAAYDALTSAQKKLVTNYDVLDEAEK
soluble fraction (log2): -0.144

HMAPKVTLNETETAIFEKMQQEKQLLLSELRTHFDISNKLWDTSIKTLTKNQLLTVSKEADLLWIKL
soluble fraction (log2): -1.34
